# From US20210300999A1
# Molecular target: SARS-CoV-2 S receptor-binding domain (SRBD), residues 319-541 (SARS-CoV-2) (UniProt P0DTC2)
# Assay: ELISA on coated antigen
substance,measurement,value
rCR3022 (recombinant form of the cross-reactive SARS-CoV SRBD mAb CR3022) (antibody),EC50,1.1 ng/mL
